Experimental data as given in article PMC9377746 (Molecular Cancer Therapeutics, 2022).

Experiments:
[1] = molecular target: human FcγRIIb (human) (UniProt P31994); assay: SPR
[2] = molecular target: human Clever-1 on cells and in tissue (Homo sapiens, UniProt Q9NY15); assay: flow cytometry on cells
[3] = molecular target: purified human Clever-1 (Homo sapiens, UniProt Q9NY15); assay: SPR
[4] = molecular target: purified cynomolgus Clever-1 (Macaca fascicularis, UniProt A0A2K5VS84); assay: SPR

Sequence of human FcγRIIb (human) (P31994 43-310): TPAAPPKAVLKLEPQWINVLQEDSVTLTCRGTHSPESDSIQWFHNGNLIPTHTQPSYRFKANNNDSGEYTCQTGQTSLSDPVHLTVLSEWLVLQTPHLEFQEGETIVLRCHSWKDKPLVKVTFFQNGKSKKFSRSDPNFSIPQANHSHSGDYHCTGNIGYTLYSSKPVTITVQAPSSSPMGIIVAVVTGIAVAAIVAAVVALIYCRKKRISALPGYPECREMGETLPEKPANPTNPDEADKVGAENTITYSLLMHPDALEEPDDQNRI
Sequence of purified human Clever-1 (Q9NY15 26-2570): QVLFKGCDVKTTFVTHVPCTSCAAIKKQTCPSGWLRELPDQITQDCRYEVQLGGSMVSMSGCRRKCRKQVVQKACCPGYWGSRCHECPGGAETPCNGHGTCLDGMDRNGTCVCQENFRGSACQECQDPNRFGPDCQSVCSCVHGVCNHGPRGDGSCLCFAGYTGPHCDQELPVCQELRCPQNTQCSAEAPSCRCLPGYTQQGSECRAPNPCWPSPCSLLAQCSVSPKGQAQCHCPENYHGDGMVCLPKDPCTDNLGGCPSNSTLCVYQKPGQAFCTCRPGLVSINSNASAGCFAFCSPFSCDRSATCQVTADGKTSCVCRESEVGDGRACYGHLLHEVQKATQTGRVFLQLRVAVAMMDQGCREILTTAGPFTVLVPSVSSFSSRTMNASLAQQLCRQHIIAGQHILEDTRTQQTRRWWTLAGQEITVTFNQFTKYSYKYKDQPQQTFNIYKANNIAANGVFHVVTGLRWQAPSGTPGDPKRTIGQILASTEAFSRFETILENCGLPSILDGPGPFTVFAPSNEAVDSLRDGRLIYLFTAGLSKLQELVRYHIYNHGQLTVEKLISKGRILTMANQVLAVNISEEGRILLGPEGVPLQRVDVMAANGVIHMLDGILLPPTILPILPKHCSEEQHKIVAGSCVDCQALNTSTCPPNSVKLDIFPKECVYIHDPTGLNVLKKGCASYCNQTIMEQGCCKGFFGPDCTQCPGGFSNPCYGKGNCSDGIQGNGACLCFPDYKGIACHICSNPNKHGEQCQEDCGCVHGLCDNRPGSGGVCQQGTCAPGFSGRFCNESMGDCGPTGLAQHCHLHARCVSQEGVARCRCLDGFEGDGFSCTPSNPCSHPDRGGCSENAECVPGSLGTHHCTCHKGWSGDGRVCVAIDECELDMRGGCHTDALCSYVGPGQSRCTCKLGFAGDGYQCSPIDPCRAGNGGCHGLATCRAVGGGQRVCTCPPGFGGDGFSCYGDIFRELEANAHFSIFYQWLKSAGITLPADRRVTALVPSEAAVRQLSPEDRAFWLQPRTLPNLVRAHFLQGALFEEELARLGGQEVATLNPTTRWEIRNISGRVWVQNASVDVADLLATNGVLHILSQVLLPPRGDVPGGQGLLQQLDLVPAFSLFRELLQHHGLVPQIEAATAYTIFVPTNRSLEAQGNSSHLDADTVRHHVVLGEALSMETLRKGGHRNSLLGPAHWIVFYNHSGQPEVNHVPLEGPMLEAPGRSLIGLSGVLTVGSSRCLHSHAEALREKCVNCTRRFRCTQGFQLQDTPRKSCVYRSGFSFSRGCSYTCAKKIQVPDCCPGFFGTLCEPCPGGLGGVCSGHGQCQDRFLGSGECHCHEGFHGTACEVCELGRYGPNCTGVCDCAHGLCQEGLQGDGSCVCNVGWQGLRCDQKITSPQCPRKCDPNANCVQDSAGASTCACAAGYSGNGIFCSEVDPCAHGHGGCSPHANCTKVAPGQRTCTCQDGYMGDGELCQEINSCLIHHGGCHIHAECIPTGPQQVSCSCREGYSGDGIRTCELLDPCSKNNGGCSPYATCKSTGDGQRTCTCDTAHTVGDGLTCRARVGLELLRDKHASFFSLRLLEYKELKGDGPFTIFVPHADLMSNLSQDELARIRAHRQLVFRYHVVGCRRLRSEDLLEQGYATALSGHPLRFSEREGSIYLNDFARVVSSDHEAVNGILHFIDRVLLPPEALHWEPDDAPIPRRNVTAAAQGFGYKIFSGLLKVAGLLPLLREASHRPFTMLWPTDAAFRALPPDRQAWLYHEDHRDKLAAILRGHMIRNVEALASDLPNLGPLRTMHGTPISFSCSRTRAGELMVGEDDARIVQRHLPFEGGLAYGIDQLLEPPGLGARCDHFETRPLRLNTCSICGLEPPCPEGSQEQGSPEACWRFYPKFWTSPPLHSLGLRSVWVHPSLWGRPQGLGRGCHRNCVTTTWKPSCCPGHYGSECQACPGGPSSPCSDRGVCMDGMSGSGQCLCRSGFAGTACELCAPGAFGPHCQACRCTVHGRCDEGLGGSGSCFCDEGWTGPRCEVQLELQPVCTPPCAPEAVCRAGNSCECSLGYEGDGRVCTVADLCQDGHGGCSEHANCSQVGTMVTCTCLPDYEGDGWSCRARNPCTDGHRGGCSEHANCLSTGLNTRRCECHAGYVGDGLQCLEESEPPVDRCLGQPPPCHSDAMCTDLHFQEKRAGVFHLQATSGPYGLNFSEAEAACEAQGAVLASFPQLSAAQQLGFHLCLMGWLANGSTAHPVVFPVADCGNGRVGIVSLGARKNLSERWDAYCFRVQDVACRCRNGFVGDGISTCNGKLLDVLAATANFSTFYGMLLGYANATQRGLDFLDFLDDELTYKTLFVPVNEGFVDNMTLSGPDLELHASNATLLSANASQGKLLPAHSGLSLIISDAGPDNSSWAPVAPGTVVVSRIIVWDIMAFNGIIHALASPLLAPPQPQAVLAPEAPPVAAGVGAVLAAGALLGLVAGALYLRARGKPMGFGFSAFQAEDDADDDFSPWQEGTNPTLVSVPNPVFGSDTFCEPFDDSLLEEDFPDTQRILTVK
Sequence of human Clever-1 on cells and in tissue (Q9NY15 26-2570): as above

Molecule	Kd [1] [µM]	EC50 [2] [nM]	Kd [3] [nM]	Kd [4] [nM]
bexmarilimab (antibody)	11.4	–	–	–
rituximab (antibody)	5.13	–	–	–
bexmarilimab (antibody, V domains shown) VH: QVTLKESGPTLVKPTQTLTLTCSFSGFSLSTSGMGIGWIRQPPGKALEWLAHIWWDDDKRYNPALKSRLTISKDTSKNQVVLTMTNMDPVDTATYYCARHYGYDPYYAMDYWGQGTLVTVSS VL: EIVLTQSPGTLSLSPGERATLSCTASSSVSSSYLHWYQQKPGKAPKLLIYRTSNLASGVPSRFSGSGSGTDYTLTISSLQPEDFATYYCHQYHRSPPTFGQGTKLEIK	–	2.2	0.75	0.92
